US10400249B2, “HPPD variants and methods of use” (priority 2014, dated 2019)
Changes are numbered by the printed parent chain. Numbers in names are those of the source.

B1: C959: reference PfHPPD mutant E335P (protein)
chain: MADLYENPMGLMGFEFIEFASPTPGTLEPIFEIMGFTKVATHRSKNVHLYRQGEINLILNNEPNSIASYFAAEHGPSVCGMAFRVKDSQKAYNRALELGAQPIHIDTGPMELNLPAIKGIGGAPLYLIDRFGEGSSIYDIDFVYLEGVERNPVGAGLKVIDHLTHNVYRGRMVYWANFYEKLFNFREARYFDIKGEYTGLTSKAMSAPDGMIRIPLNEESSKGAGQIEEFLMQFNGEGIQHVAFLTDDLVKTWDALKKIGMRFMTAPPDTYYEMLEGRLPDHGEPVDQLQARGILLDGSSVEGDKRLLLQIFSETLMGPVFFEFIQRKGDDGFGPGNFKALFESIERDQVRRGVLTAD
modifications: HPPD variant - C959
B2: K299: PfHPPD carrying only the P215L mutation, used as a second reference (protein)
chain: B1 chain with P215L, P335E
modifications: HPPD variant - K299
B3: K407: PfHPPD variant A188G, R189E, P215N, E335P, G336F, A340E (protein)
chain: B1 chain with A188G, R189E, P215N, G336F, A340E
modifications: HPPD variant - K407
notes: PfHPPD variant A188G, R189E, P215N, E335P, G336F, A340E
B4: K406: PfHPPD variant A188G, R189G, P215N, E335P, G336F, A340E (protein)
chain: B1 chain with A188G, R189G, P215N, G336F, A340E
modifications: HPPD variant - K406
notes: PfHPPD variant A188G, R189G, P215N, E335P, G336F, A340E
B5: PfHPPD: wild-type Pseudomonas fluorescens HPPD, reference protein (protein)
chain: B1 chain with P335E
modifications: Pseudomonas Fluorescens
B6: K405: PfHPPD variant A188G, R189C, P215A, E335P, G336F, A340E (protein)
chain: B1 chain with A188G, R189C, P215A, G336F, A340E
modifications: HPPD variant - K405
notes: PfHPPD variant A188G, R189C, P215A, E335P, G336F, A340E
B7: K408: PfHPPD variant A188G, R189D, P215N, E335P, G336F, A340E (protein)
chain: B1 chain with A188G, R189D, P215N, G336F, A340E
modifications: HPPD variant - K408
notes: PfHPPD variant A188G, R189D, P215N, E335P, G336F, A340E

Tested on: Pseudomonas fluorescens HPPD protein
Test: OD assay: HPPD activity and pI50 from HPP remaining after derivatisation with DNP
Format: biochemical
Conditions: for Activity DeltaE/24 min μg Protein: HPPD enzyme activity of the clone; for tolerance (pI50) DKN: inhibitor diketonitrile (DKN), negative log of molar concentration; for tolerance (pI50) MST: inhibitor mesotrione (MST); for tolerance (pI50) Cmpd. 2: inhibitor Cmpd. 2; for tolerance (pI50) TBT: inhibitor tembotrione (TBT)
Description: HPPD proteins were produced and purified as described in WO2011/076882. The activity of HPPD proteins in absence or presence of HPPD inhibitors was determined using either the so called OD assay or the HGD assay.
• a) The OD assay: The HPPD activity was determined colourimetrically by measuring the amount of HPP remaining in the assay mixture at the end of the incubation period after derivatisation of HPP with 2,4-dinitrophenylhydrazine (DNP) to form an amber-brown colored 2,4-dinitrophenylhydrazone under alkaline conditions. The assay was carried out at room temperature in Greiner F-bottom 96 well microplates. The assay mixture contained 50 mM Tris-HCl pH 7.8, 0.5 mM HPP, 10 mM ascorbate, 650 units of catalase and appropriate amounts of purified HPPD enzyme in a total assay volume of 100 μl. The reaction was started by the addition of enzyme. After an incubation time of 24 minutes, the reaction was stopped by the addition of 50 μl of a solution of 0.04% DNP dissolved in 3.8 N HCl. After a further 15-minute incubation period 100 μl of a 5 N KOH solution was added to the reaction mixture and the amount of unconsumed HPP was measured photometrically at 405 nm. Enzyme activity was calculated as the difference in E405 between assays lacking enzyme (negative control) and the enzyme containing assays (ΔE405=E405(negative control)−E405). Enzyme activity (nmol substrate consumed per min) was calculated from a calibration curve generated from HPP. pI50-values (the negative log value of the concentration of inhibitor necessary to inhibit 50% of the enzyme activity in molar concentration were determined from dose-response plots of HPPD activity versus inhibitor concentration tested (5.0×10^−6, 1.0×10^−5, 2.5×10^−5, 4.0×10^−5, 7.0×10^−5, 1.0×10^−4, 2.0×10^−4 and 5.0×10^−4M) using the 4 Parameter Logistic Model or Sigmoidal Dose-Response Model of the ID Business Solutions Ltd. XLfit software suite. The result “>5.6” means that the inhibition at the lowest inhibitor concentration tested was higher than 85% and the pI50-value could therefore not be precisely calculated within in the range of concentration of inhibitor tested. The result “<2.5” means that the inhibition at the highest inhibitor concentration tested was lower than 25% and the pI50-value could therefore not be precisely calculated within in the range of concentration of inhibitor tested. “n.d.” means not determined. • b) The HGD assay: With the HGD assay HPPD activity was measured at room temperature by adding appropriate amounts of HPPD to a solution of 200 mM Tris-HCl pH 7.6, 10 mM ascorbate, 20 μM FeSO4, 650 units of catalase, 8 μg HGA dioxygenase (HGA: homogentisate) and 600 μM HPP in a total volume of 1 ml. Initial reaction rates in the absence or presence of inhibitors were determined from the increase in absorbance at 318 nm due to the formation of maleylacetoacetate (ε318=11,900 M−1 cm-1). pI50-values (the negative log value of the concentration of inhibitor necessary to inhibit 50% of the enzyme activity in molar concentration were determined from dose-response plots of HPPD activity versus inhibitor concentration tested using the 4 Parameter Logistic Model or Sigmoidal Dose-Response Model of the ID Business Solutions Ltd. XLfit software suite. Due to the UV absorption of the HPPD inhibitors tested, inhibitor concentrations >100 μM could not be tested. The result “<4” means that the inhibition at 100 μM inhibitor concentration was lower than 25% and the pI50-value could therefore not be precisely calculated within in the range of concentration of inhibitor tested. “n.d.” means not determined. The HGD assay allowed to continuously follow HPPD-catalyzed HGA formation over time was therefore used to determine the inhibition type of the HPPD inhibitors tested. […] When in the presence of an inhibitor the HPPD activity was inhibited but the inhibition was found not to […] in a time-dependent manner, the inhibitor was called reversible (abbreviation “rev”). […]

Row | Molecule | Activity DeltaE/24 min μg Protein | tolerance (pI50) DKN | tolerance (pI50) MST | tolerance (pI50) Cmpd. 2 | tolerance (pI50) TBT
1 | B1 | 0.09 DeltaE/24 min μg Protein | 5.5 | >5.6 | – | –
2 | B2 | 0.17 DeltaE/24 min μg Protein | 5.1 | 5.5 | >5.6 | >5.6
3 | B3 | 0.41 DeltaE/24 min μg Protein | <2.5 | 3.6 | 5.7 | 4.6
4 | B4 | 0.52 DeltaE/24 min μg Protein | <2.5 | 3.5 | 5.6 | 4.5
5 | B5 | 0.76 DeltaE/24 min μg Protein | >5.6 | >5.6 | >5.6 | >5.6
6 | B6 | 0.16 DeltaE/24 min μg Protein | 3.3 | 3.7 | 4.9 | 4.8
7 | B7 | 0.56 DeltaE/24 min μg Protein | <2.5 | 3.6 | 5.7 | 4.6
